± gives the standard deviation.
Assay: protein stability index of a GFP-peptide fusion (GPS, HEK-293T) (PSI 1-6); higher = more stable
Conditions: c terminus: a fixed tail appended
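Also: 24-mer peptide tiles fused after GFP, lentivirally expressed, FACS-sorted into six equal bins by GFP/DsRed ratio, decoded by Illumina sequencing, PSI is the read-weighted mean bin number.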

Row | Sequence | protein stability index (treatment: DMSO) | protein stability index (treatment: MLN4924 1 uM, 8 h)
1 | RADKNDDGKLSFEEFKAYFADGVL [NECAB1] | 3.48 ± 0.3 | 3.58 ± 0.39
2 | EYLSFFDFSGLTLDGALRTFLKAF [PSD2] | 2.44 ± 0.31 | 2.01 ± 0.34
3 | LQEPGEPQGPPASPSCPEEALAAT [PXN] | 5.44 ± 0.22 | 5.278 ± 0.023
4 | EGIRQTEYTLTGLKFDMKYMNFRV [FSD1] | 2.67 ± 0.54 | 2.56 ± 0.52
5 | WGVFYYFVSALGITAGAHRLWSHR [SCD] | 3.38 ± 0.79 | 2.63 ± 0.62
6 | AGGGSQENLDNDTETDSLVSAQRE [DVL3] | 5.32 ± 0.21 | 5.65 ± 0.36
7 | WVFGTSFLPFLLCAVLLSAVQAQA [FADS1] | 3.09 ± 0.6 | 2.51 ± 0.12
8 | CTFSLTHPANRSCRETGSFLDLFR [SLC22A15] | 2.31 ± 0.33 | 2.14 ± 0.45
9 | MKVKVIPVLEDNYMYLVIEELTRE [HAGHL] | 2.94 ± 0.55 | 2.95 ± 0.56
10 | SRMKERAIDLNKKGKDNKHPMYRR [ZMYND11] | 4.12 ± 0.2 | 4.08 ± 0.46
11 | PPGSHLLYAKMIQKLADLRSLNEE [VDR] | 2.61 ± 0.11 | 2.67 ± 0.25
12 | QRSVSDVASGSTPAPALCCAPYDS [IRX6] | 4.8 ± 0.34 | 4.94 ± 0.085
13 | ERVDGRRLVYKFGKNSSGWKEEEV [ELF3] | 4.11 ± 0.37 | 4.39 ± 0.15
14 | MNPYNAVLTKKFQVTMRGLLSCLS [FBXO39] | 2.7 ± 0.75 | 2.72 ± 0.23
15 | YSLTTSSTHKRSSLRKVKLVRPPQ [RAB40B] | 3.42 ± 0.24 | 3.63 ± 0.32
16 | NFVRERTLDKRWRVRKEAMMGLAQ [PDS5B] | 2.8 ± 0.24 | 2.83 ± 0.39

Row | Sequence | protein stability index (treatment: DMSO) | protein stability index (treatment: MLN4924 1 uM, 8 h)
17 | DTREEKRFLGEGHHRVQENQMDKA [CHGB] | 5.25 ± 0.13 | 5.16 ± 0.25
18 | AKIRAKIPGTGALASAAAAVSGSK [RTN2] | 4.3 ± 0.15 | 4.64 ± 0.34
19 | VDIKPANMEELTEVITAAEFHPHH [PPP2R2B] | 4.47 ± 0.34 | 4.42 ± 0.58
20 | VFLPIVVLIFKSILFLPCLRKKIL [STEAP1] | 2.98 ± 0.78 | 2.98 ± 0.59
21 | LLVVGGFGSQQSPIDVVEKYDPKT [KLHL12] | 3 ± 0.55 | 3.61 ± 0.33
22 | VNSDYETYMSADDLRINLWNFEIT [PPP2R2B] | 2.19 ± 0.23 | 2.4 ± 0.23
23 | EGQARCLAHLGRHMEALEIAANLE [C8orf76] | 3.6 ± 0.42 | 3.74 ± 0.39
24 | NPQALSPQFTGILQLLQSRTSRKF [INTS3] | 2.93 ± 0.22 | 2.98 ± 0.35
25 | FSTCGSHLTVVAIFYGSGIFNYMR [OR3A1] | 2.89 ± 0.56 | 2.94 ± 0.49
26 | RQFEFYLEEMILPLMVASAQSGER [BTBD10] | 2.58 ± 0.64 | 3.2 ± 0.43
27 | DTDVDMEGLRRRRGREAGPPQPMV [PBXIP1] | 4.75 ± 0.36 | 5.04 ± 0.11
28 | ADFKGVLQRPSYKFFFKSMDDDFG [DVL3] | 2.5 ± 0.28 | 2.67 ± 0.11
29 | EAQISDPFAPEPTPPTTTAEIATA [SNAP91] | 5.42 ± 0.28 | 5.46 ± 0.13
30 | LFLFGYKFSGLYILSFTVIMVGFI [SLC35F2] | 3.64 ± 0.12 | 3.18 ± 0.41
31 | KYLKVPQDPLKFYKKIYFCHSCQL [IQUB] | 2.24 ± 0.47 | 1.97 ± 0.2
32 | PSETGNTFVSGGCDKKAMVWDMRS [GNB5] | 3.93 ± 0.16 | 3.75 ± 0.26
